Assay results reported in patent US12583913B2, “Antibody specific to Staphylococcus aureus, therapeutic method and detection method using same” (priority 2019, dated 2026).

Key:
[1] = tested on: GMA-2105; assay: Solid phase competitive inhibition ELISA with variant staphylocoagulase peptides; type: binding; details: peptide incubated with GMA-2105 in solution overnight at 4 degrees C
Excerpt: There are reported strain specific sequence differences at residue positions 8 and 9 of staphylocoagulase (SEQ ID. No.: 2). […] Wantabe, et al., Genetic Diversity of Staphylocoagulase Genes (coa): Insight into the evolution of variable chromosomal virulence factors in Staphylococcus aureus. PLoS ONE 2009; 4(5): 1-11, incorporated herein by reference in its entirety. […] 9 (“Mutated Peptide Ala 8”), position 9 of SEQ ID NO. 9 (“Mutated Peptide Ala 9”), and position 8 and 9 of SEQ ID NO.: 9 (“Mutated Peptide Ala 8 & 9”) (see FIG. 13). We measured the binding of each synthetic peptide (Mutated Peptide Ala 8, Mutated Peptide Ala 9, and Mutated Peptide Ala 8 & 9) to GMA-2105 in solution.
We tested binding of Mutated Peptide Ala 8, Mutated Peptide Ala 9, and Mutated Peptide Ala 8 & 9 to GMA-2105 in a solid phase competitive inhibition assay. GMA-2105 was incubated with increasing concentrations of each of Mutated Peptide Ala 8, Mutated Peptide Ala 9, and Mutated Peptide Ala 8 & 9 (referred to hereafter as “GMA-2105—Mutated Peptide samples”) in solution overnight at 4 degrees C. The incubation was followed by transfer of the GMA-2105—Mutated Peptide samples to wells coated with the non-mutated peptide, […] (SEQ ID. No.: 9) and blocked with 0.1% BSA PBS. After a 30-minute incubation, wells were washed with PBS containing 0.05% TWEEN 20, followed by addition of goat anti-mouse secondary antibody conjugated to horseradish peroxidase. Substrate ortho-phenylenediamine conversion to product was measured at 490 nm using a spectrophotometer. The negative control as was a purified irrelevant synthetic peptide.

[2] = tested on: staphylocoagulase; assay: Western blot detection of staphylocoagulase in cultured bacteria supernatants; type: binding; details: supernatants of S. aureus strains COL and MW2 (MRSA)
Excerpt: Lanes A, B, and C contain concentrated (10×) supernatants from identically cultured bacteria. Lane A: S. saprophyticus (coagulase negative bacterium control); Lane B: S. aureus strain COL (MRSA); Lane C: S. aureus strain MW2 (MRSA); Lane D: media blank; Lane E: staphylocoagulase peptide conjugated to ovalbumin (SEQ ID NO.: 9).

[3] = target: T1, staphylocoagulase peptide SC(1-10) […] (SEQ ID NO: 9) (Staphylococcus aureus, UniProt P17855); assay: Solid-phase ELISA on staphylocoagulase peptide; type: binding, S. aureus
T1 construct: made in house; host or cells: chemical synthesis
Protocol: Two additional 50 μg injections (peptide-KLH conjugate in incomplete Freunds adjuvant) were given on days 61 and 111. A serum sample from each mouse was collected on Day 122 and the antibody titer measured by solid-phase Enzyme Linked Immunosorbant Assay (ELISA) using the staphylocoagulase and/or vWbp peptide conjugated to ovalbumin coated on 96-well ELISA plates at 2 ug/ml. Uncoated areas of the wells were blocked with albumin from bovine serum (BSA). The wells were then incubated with dilutions of the mouse serum to test whether the serum contained antibodies to the staphylocoagulase and/or vWbp peptide. Bound antibodies were detected with anti-mouse IgG secondary antibody conjugated to horseradish peroxidase. The plates were then incubated with o-phenylenediamine (OPD) substrate which undergoes a color change in the presence of HRP the intensity of which can be measured using absorption at 490 nm wavelength in a microplate reader. […]
Purified chimeric GMA-2105 and murine GMA-2105 antibody were tested against staphylocoagulase peptide […] […] Antibody-antigen complex was detected using a goat anti-mouse secondary antibody conjugated to horseradish peroxidase or goat anti-human secondary antibody conjugated to horseradish peroxidase. Substrate ortho-phenylene diamine conversion to product was measured at 490 nm using a spectrophotometer

[4] = target: SC(1-246)●prothrombin^3Q (Staphylococcus aureus, UniProt P17855); assay: Inhibition of prothrombin^3Q activation by SC(1-246), S2238 hydrolysis; type: biochemical, S. aureus; details: read-out: affinity of inhibition of prothrombin^3Q activation by SC(1-246); prothrombin 1 nM, SC(1-246) 5.6 nM and 28 nM
[5] = target: T2, BODIPY-labeled staphylocoagulase SC (S7C) (1-325) (Staphylococcus aureus, UniProt P17855, S33C); assay: Equilibrium binding of BODIPY-labeled staphylocoagulase, fluorescence titration in solution; parameters: species or system S. aureus
T2 construct: BODIPY fluorophore (chemical label)
Protocol: In solution, the antibody bound Ser 7 to Cys mutant of SC(1-325). Binding studies were done using the BODIPY-labeled staphylocoagulase SC (S7C) (1-325) (SEQ ID NO.: 2, positions 1-325 with Cys at position 7). The change of fluorescence upon antibody binding is measured as a function of the unlabeled ligand concentration and fitting the data to the quadratic binding equation gives the dissociation constant (KD), and the stoichiometry (n). Panizzi, et al., Fibrinogen substrate recognition by staphylocoagulase-(pro)thrombin complexes, J. Biol. Chem. 2006; 281:118-95.
Direct binding of BODIPY-SC(S7C) at 27 nM (●) and 130 nM (∘) probe titrated with GMA-2105 caused fluorescence increase, whereas unlabeled SC(1-246) (triangles) displaced BODIPY-SC(S7C) labeled staphylocoagulase from binding the antibody. Simultaneous fit of all datasets provide the Kd for the unmodified competitor to the antibody.
Concentrations were: BODIPY-staphylocoagulase (1-325) at 27 nM (●) and 130 nM (∘) titrated with GMA-2105 and unlabeled staphylocoagulase (1-246)(residues 1-246 of SEQ ID No. 2).
In FIG. 29, BODIPY®-labeled staphylocoagulase fragment (1-325) at 27 nM (●) and 130 nM (∘) titrated with chimeric GMA-2105 in solution in the presence of unlabeled staphylocoagulase fragment (1-246) (▴).

**Q.** How did the “inhibition of GMA-2105 binding to wells coated with […]” value (“inhibition of GMA-2105 binding” for short) [1] turn out when “Mutated Peptide Ala 8 & 9: synthetic peptide with alanine substitutions at positions 8 and 9 of SEQ ID NO. 9 (IVTKDYSAAS)” was run?
**A.** inhibited binding of antibody

**Q.** “Mutated Peptide Ala 8: synthetic peptide with alanine substitution at position 8 of SEQ ID NO. 9 (IVTKDYSAES)” was tested. Which “inhibition of GMA-2105 binding” value [1] did it give?
**A.** inhibited binding of antibody

**Q.** For “Mutated Peptide Ala 9: synthetic peptide with alanine substitution at position 9 of SEQ ID NO. 9 (IVTKDYSKAS)”, which “inhibition of GMA-2105 binding” value [1] is on record?
**A.** inhibited binding of antibody

B1: GMA-2105 F(ab): fragment antigen-binding fragment of GMA-2105 (antibody, V domains shown)
VH: EVKLEESGGGLVQPGGSMKLSCAASGFTFSDAWMDWVRQSPEKGLEWVAEIRTKANNHATYYAESVKGRFTISRDDSKSSVYLQMNSLRAEDTGIYYCTNVYYGNNDVKDYWGQGTSVTVSPAS
VL: DIVMTQSQKFMSTSVGDRVSVTCKASQNVDIYVAWYQQKPGQSPKALIYSASYRFSGVPDRFTGSGSGTDFTLSISNVQSEDLAEYFCQQYNNYPYTFGGGTKLEIKRADAAPTVSIFPPSSEGRI
**Q.** What does the source list for B1?
**A.** binding of staphylocoagulase in cultured bacteria, Western blot [2]: bind staphylocoagulase; binding to staphylocoagulase peptide in ELISA [3]: capable of binding

B2: GMA-2105: inhibitory mouse anti-staphylocoagulase monoclonal antibody raised against peptide […]; VH SEQ ID NO 6, VL SEQ ID NO 8 (protein)
chain 1: B1 VH
chain 2: B1 VL
**Q.** With B2 as the molecule, how does the Kd [4] read?
**A.** 0.9 nM

B3: chimeric GMA-2105 (antibody, V domains shown)
VH: B1 VH
VL: B1 VL
**Q.** How did the “binding characteristics compared with murine GMA-2105” value ([5]; FIG. 30) turn out when B3 was run?
**A.** essentially identical

**Q.** And the stoichiometry ([5]; chimeric antibody)?
**A.** 2 mol staphylocoagulase/mol chimeric antibody

**Q.** What about the “binding to staphylocoagulase peptide in ELISA” value [3] of the same molecule?
**A.** binding
